Assays:
PCSK9 = target: T1, PCSK9 (human, UniProt Q8NBP7 31-692, biotin on lysines (Sulfo-NHS-LC-biotin)); experiment: SPR; details: both partners purified
T1 construct: also called PCSK9FL; hPCSK9 FL

[1] = target: T2, PCSK9ΔCRD (PCSK9 lacking the C-terminal Cys-rich domain CRD) (human, UniProt Q8NBP7 31-452, biotin on lysines (Sulfo-NHS-LC-biotin)); experiment: ELISA; details: one partner purified
T2 construct: also called PCSK9DCRD; PCSK9dCRDTEV
T2 sequence (Q8NBP7 31-452, stated change not applied): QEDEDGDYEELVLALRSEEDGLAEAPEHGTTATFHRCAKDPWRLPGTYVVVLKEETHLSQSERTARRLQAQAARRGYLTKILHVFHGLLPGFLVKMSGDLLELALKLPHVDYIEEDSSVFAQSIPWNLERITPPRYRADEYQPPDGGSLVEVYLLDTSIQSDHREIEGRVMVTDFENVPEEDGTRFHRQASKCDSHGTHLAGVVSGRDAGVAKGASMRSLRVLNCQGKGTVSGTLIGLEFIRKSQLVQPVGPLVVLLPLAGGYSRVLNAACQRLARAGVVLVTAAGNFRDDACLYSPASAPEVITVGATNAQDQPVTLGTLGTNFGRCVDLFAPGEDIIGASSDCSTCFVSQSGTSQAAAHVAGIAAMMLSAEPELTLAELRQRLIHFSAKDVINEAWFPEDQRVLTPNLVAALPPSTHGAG

T1 sequence (Q8NBP7 31-692): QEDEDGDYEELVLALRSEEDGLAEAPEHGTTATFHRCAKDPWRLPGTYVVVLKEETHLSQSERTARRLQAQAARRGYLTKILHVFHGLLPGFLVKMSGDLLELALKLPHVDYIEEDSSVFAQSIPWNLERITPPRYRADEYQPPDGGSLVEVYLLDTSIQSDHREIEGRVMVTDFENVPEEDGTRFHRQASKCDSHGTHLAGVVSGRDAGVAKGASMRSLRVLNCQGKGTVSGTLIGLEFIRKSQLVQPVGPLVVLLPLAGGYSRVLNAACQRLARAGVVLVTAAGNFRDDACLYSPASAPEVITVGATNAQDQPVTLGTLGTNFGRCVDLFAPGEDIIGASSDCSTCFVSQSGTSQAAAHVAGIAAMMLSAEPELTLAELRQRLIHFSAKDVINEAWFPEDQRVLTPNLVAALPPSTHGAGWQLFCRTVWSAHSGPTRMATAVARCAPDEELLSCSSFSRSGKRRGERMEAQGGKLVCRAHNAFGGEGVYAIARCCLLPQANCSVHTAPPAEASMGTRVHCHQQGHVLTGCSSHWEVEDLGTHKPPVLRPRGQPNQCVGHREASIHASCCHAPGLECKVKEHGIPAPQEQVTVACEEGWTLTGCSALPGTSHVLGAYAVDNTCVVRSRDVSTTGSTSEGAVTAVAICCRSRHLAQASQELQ

ECKGKGAKCSYYMGIDKGYVNYCCTGSCRSGKC (designed binder, Conotoxin-MVIIA scaffold) [PCSK9_CnTx1]
Kd (PCSK9): 4.5 µM

ECKGKGAKCSYYMGIDKGYVNYCCTGSCRSGKC (designed binder, Conotoxin-MVIIA scaffold) [PCSK9_CnTx1 displayed on M13 phage]
ELISA [1]: 2
s/n Ratio [1]: 29.7

Source: PMC10977697 (PLOS ONE, 2024)
